This note sets out measurements from article PMC2064708.

Experiment [1] has as its target Shp2 N-terminal SH2-containing domain (UniProt Q06124). The experiment in a line: far-Western of β4 IP with GST-Shp2. The note with it: reference: wild-type β4.
Experiment [2] has as its target Shp2 (UniProt Q06124). Kind of experiment: co-IP, anti-β4 IP, Shp2 blot. Particulars: reference: wild-type β4; sites Y1257,Y1494.

Turning to “β4 integrin (from UniProt P16144-2) β4-ΔShp2D (Y1257F, Y1494F)”, the “binding against the reference” value in experiment [1] (sites Y1257,Y1494) is “weaker”.
With “β4 integrin (from UniProt P16144-2) double mutant Y1257F/Y1494F”, the “binding against the reference” value in experiment [2] is listed as “weaker”.
Take “β4 integrin (from UniProt P16144-2) β4-Y1440F”: the “binding against the reference” value in experiment [1] (sites Y1440) was “weaker”.
